# Target: prostate-specific membrane antigen (PSMA) on prostate cancer cell lines (human, UniProt Q04609 1-750)
# Assay: cell-based or functional assay
# prostate-specific membrane antigen (PSMA) on prostate cancer cell lines, sequence (Q04609 whole entry): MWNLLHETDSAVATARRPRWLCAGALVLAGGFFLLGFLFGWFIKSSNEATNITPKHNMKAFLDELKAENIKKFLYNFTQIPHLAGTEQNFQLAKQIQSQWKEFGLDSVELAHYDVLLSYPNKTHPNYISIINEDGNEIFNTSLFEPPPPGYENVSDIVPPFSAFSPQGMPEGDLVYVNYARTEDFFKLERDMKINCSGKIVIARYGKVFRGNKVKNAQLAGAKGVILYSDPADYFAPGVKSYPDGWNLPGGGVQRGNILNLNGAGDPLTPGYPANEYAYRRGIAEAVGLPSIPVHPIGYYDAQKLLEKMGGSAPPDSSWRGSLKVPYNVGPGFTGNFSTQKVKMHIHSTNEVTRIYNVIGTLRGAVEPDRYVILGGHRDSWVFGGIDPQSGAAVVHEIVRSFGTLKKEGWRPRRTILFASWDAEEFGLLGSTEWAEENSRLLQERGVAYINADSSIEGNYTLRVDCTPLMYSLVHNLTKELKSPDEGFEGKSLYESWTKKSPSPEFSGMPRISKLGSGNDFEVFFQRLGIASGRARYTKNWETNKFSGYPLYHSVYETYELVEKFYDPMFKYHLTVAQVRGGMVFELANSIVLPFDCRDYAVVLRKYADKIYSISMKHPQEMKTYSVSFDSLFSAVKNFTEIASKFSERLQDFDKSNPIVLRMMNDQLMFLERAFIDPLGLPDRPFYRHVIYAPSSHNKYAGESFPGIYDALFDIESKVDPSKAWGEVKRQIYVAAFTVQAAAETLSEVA
Binder,"IC50, in-vitro cytotoxicity (CellTiterGlo), C4-2 cells","IC50, in-vitro cytotoxicity (CellTiterGlo), MDA-PCa-2b cells"
"Ac-225-macropa-Pelgifatamab (CAR 0.8) (antibody, V domains shown, macropa chelator complexing 225Ac, coupled via thiourea to the terminal amino group of a Lysine residue; chelator-to-antibody ratio 0.8; chain and position not stated) VH: QVQLVESGGGVVQPGRSLRLSCAASGFAFSRYGMHWVRQAPGKGLEWVAVIWYDGSNKYYADSVKGRFTISRDNSKNTQYLQMNSLRAEDTAVYYCARGGDFLYYYYYGMDVWGQGTTVTVSS VL: DIQMTQSPSSLSASVGDRVTITCRASQGISNYLAWYQQKTGKVPKFLIYEASTLQSGVPSRFSGGGSGTDFTLTISSLQPEDVATYYCQNYNSAPFTFGPGTKVDIKR",0.09 kBq/ml,0.05 kBq/ml
"Ac-225-DOTA-Pelgifatamab CAR 12.7 (antibody, V domains shown, p-SCN-Bn-DOTA chelator complexing 225Ac, coupled to the terminal amino group of Lysine residues; chelator-to-antibody ratio 12.7; chain and positions not stated) VH: QVQLVESGGGVVQPGRSLRLSCAASGFAFSRYGMHWVRQAPGKGLEWVAVIWYDGSNKYYADSVKGRFTISRDNSKNTQYLQMNSLRAEDTAVYYCARGGDFLYYYYYGMDVWGQGTTVTVSS VL: DIQMTQSPSSLSASVGDRVTITCRASQGISNYLAWYQQKTGKVPKFLIYEASTLQSGVPSRFSGGGSGTDFTLTISSLQPEDVATYYCQNYNSAPFTFGPGTKVDIKR",0.29 kBq/ml,0.2 kBq/ml
"Ac-225-DOTA-Pelgifatamab CAR 5.7 (antibody, V domains shown, p-SCN-Bn-DOTA chelator complexing 225Ac, coupled to the terminal amino group of Lysine residues; chelator-to-antibody ratio 5.7; chain and positions not stated) VH: QVQLVESGGGVVQPGRSLRLSCAASGFAFSRYGMHWVRQAPGKGLEWVAVIWYDGSNKYYADSVKGRFTISRDNSKNTQYLQMNSLRAEDTAVYYCARGGDFLYYYYYGMDVWGQGTTVTVSS VL: DIQMTQSPSSLSASVGDRVTITCRASQGISNYLAWYQQKTGKVPKFLIYEASTLQSGVPSRFSGGGSGTDFTLTISSLQPEDVATYYCQNYNSAPFTFGPGTKVDIKR",0.15 kBq/ml,0.09 kBq/ml

# Reference: patent EP4279092A1 (Bayer AG, dated 2023)
